Patent publication US20240268361A1

Key:
[1] = target: mouse TFR1 (NP_035768.1) (mouse) (UniProt Q62351); experiment: flow cytometry, C57BL/6 wild-type mouse B cells stained with APC anti-human CD71
[2] = target: humanized TFR1 protein (engineered mouse TFR1 after humanization) (chimeric mouse/human) (UniProt P02786); experiment: flow cytometry, B cells of TFR1 gene humanized heterozygous mouse (carry both mouse and humanized TFR1) stained with APC anti-human CD71
[3] = target: humanized TFR1 protein (engineered mouse TFR1 after humanization) (chimeric mouse/human) (UniProt P02786); experiment: flow cytometry, bone marrow erythroid cells of TFR1 gene humanized homozygous mouse stained with APC anti-human CD71
[4] = target: mouse TFR1 (NP_035768.1) (mouse) (UniProt Q62351); experiment: flow cytometry, C57BL/6 wild-type bone marrow erythroid cells stained with APC anti-human CD71
[5] = target: mouse TFR1 (NP_035768.1) (mouse) (UniProt Q62351); experiment: flow cytometry, C57BL/6 wild-type bone marrow erythroid cells stained with PE anti-mouse CD71
[6] = target: humanized TFR1 protein (engineered mouse TFR1 after humanization) (chimeric mouse/human) (UniProt P02786); experiment: flow cytometry, bone marrow erythroid cells of TFR1 gene humanized homozygous mouse stained with PE anti-mouse CD71
[7] = target: mouse TFR1 (NP_035768.1) (mouse) (UniProt Q62351); experiment: flow cytometry, B cells of TFR1 gene humanized heterozygous mouse (carry both mouse and humanized TFR1) stained with PE anti-mouse CD71
[8] = target: mouse TFR1 (NP_035768.1) (mouse) (UniProt Q62351); experiment: flow cytometry, C57BL/6 wild-type mouse B cells stained with PE anti-mouse CD71

Chain of UniProt P02786 (P02786 other isoform, or with tags, fused parts or gaps mutant): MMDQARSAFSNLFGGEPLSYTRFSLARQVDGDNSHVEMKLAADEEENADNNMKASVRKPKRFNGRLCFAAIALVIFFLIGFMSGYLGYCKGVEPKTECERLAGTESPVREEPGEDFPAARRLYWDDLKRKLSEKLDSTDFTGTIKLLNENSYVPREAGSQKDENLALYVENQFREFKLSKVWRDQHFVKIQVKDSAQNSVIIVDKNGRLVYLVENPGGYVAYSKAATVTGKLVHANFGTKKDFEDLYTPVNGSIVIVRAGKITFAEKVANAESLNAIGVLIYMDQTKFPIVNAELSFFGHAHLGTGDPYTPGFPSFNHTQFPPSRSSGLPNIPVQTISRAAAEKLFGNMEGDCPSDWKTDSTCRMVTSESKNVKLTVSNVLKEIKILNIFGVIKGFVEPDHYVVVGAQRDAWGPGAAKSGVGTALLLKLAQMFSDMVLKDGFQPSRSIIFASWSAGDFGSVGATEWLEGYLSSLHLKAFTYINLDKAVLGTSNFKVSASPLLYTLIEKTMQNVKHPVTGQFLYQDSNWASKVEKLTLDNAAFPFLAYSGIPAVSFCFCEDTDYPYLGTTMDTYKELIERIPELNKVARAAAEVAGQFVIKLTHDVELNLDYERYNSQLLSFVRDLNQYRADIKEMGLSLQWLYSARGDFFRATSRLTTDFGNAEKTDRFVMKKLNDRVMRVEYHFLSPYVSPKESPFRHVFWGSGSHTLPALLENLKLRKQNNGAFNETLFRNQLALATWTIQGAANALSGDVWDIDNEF
Chain of UniProt Q62351 (Q62351 whole entry): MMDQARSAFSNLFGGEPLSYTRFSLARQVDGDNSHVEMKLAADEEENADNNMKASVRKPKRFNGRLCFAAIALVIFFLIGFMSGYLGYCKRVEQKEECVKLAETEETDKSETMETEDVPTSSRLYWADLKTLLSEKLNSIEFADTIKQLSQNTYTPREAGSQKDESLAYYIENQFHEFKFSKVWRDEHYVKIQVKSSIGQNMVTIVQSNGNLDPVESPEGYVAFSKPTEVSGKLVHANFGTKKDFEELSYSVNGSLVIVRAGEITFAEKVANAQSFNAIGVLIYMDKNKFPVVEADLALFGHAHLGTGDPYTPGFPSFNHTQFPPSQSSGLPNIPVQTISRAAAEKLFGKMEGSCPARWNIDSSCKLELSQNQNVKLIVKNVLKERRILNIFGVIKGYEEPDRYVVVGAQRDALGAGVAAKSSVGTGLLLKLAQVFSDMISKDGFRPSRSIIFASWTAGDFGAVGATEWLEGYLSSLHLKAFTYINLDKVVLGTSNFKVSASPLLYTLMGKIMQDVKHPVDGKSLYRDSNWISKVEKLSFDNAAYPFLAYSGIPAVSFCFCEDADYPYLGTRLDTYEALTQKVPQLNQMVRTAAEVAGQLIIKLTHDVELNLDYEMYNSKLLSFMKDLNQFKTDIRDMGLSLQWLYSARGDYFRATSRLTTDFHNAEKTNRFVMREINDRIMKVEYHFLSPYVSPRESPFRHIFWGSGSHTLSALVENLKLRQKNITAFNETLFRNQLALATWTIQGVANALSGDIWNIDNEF

Substance	percent of B cells positive [1]	percent of B cells positive [2]	percent of erythroid cells positive [3]	percent of erythroid cells positive [4]	percent of erythroid cells positive [5]	percent of erythroid cells positive [6]	percent of B cells positive [7]	percent of B cells positive [8]
APC anti-human CD71 Antibody (BioLegend, Catalog number: 334107)	0.2%	11.3%	10.1%	0.087%	–	–	–	–
PE anti-mouse CD71 Antibody (BioLegend, Catalog number: 113807)	–	–	–	–	14.2%	0.04%	32.9%	50.6%
